The record followed here is patent publication US20190112342A1 (UNIVERSITY OF CHICAGO, published 2019).

For the experiment, the target named is T1, human prothrombin (human, UniProt P00734 44-622).
T1 construct: also called PT
Description: affinity chromatography of human citrate-plasma, immunoblot with anti-prothrombin. For orientation: Immunoblotting shows a protein as a band on a membrane.

B1: R domain of Coa Newman with C-terminal Strep tag (RST) (other)
chain: EARPRFNKPSETNAYNVTTHANGQVSYGARPTYKKPSETNAYNVTTHANGQVSYGARPTQNKPSKTNAYNVTTHGNGQVSYGARPTQNKPSKTNAYNVTTHANGQVSYGARPTYKKPSKTNAYNVTTHADGTATYG
notes: Encoded by plasmid pET15b-rST; also called repeat (R) domain; not shown: C-terminal Strep tag
Turning to B1, the binding result is listed as “no binding”.

B2: full-length strep-tagged Coa (CoaST) (other)
chain: IVTKDYSGKSQVNAGSKNGTLIDSRYLNSALYYLEDYIIYAIGLTNKYEYGDNIYKEAKDRLLEKVLREDQYLLERKKSQYEDYKQWYANYKKENPRTDLKMANFHKYNLEELSMKEYNELQDALKRALDDFHREVKDIKDKNSDLKTFNAAEEDKATKEVYDLVSEIDTLVVSYYGDKDYGEHAKELRAKLDLILGDTDNPHKITNERIKKEMIDDLNSIIDDFFMETKQNRPKSITKYNPTTHNYKTNSDNKPNFDKLVEETKKAVKEADDSWKKKTVKKYGETETKSPVVKEEKKVEEPQAPKVDNQQEVKTTAGKAEETTQPVAQPLVKIPQGTITGEIVKGPEYPTMENKTVQGEIVQGPDFLTMEQSGPSLSNNYTNPPLTNPILEGLEGSSSKLEIKPQGTESTLKGTQGESSDIEVKPQATETTEASQYGPRPQFNKTPKYVKYRDAGTGIREYNDGTFGYEARPRFNKPSETNAYNVTTHANGQVSYGARPTYKKPSETNAYNVTTHANGQVSYGARPTQNKPSKTNAYNVTTHGNGQVSYGARPTQNKPSKTNAYNVTTHANGQVSYGARPTYKKPSKTNAYNVTTHADGTATYGPRVTK
notes: Purified over Strep-Tactin-Sepharose; Used in the plasma pull-down and in the prothrombin and fibrinogen interference ELISAs; not shown: Strep tag
B2: the binding result was “binds”.
